Data from patent publication US20140030278A1 (published 2014).

B1: etanercept (ENBREL®), non-PEGylated (Fc fusion)
chain: LPAQVAFTPYAPEPGSTCRLREYYDQTAQMCCSKCSPGQHAKVFCTKTSDTVCDSCEDSTYTQLWNWVPECLSCGSRCSSDQVETQACTREQNRICTCRPGWYCALSKQEGCRLCAPLRKCRPGFGVARPGTETSDVVCKPCAPGTFSNTTSSTDICRPHQICNVVAIPGNASMDAVCTSTSPTRSMAPGAVHLPQPVSTRSQHTQPTPEPSTAPSTSFLLPMGPSPPAEGSTGDEPKSCDKTHTCPPCPAPELLGGPSVFLFPPKPKDTLMISRTPEVTCVVVDVSHEDPQVKFNWYVDGVQVHNAKTKPREQQYNSTYRVVSVLTVLHQNWLDGKEYKCKVSNKALPAPIEKTISKAKGQPREPQVYTLPPSREEMTKNQVSLTCLVKGFYPSDIAVEWESNGQPENNYKTTPPVLDSDGSFFLYSKLTVDKSRWQQGNVFSCSVMHEALHNHYTQKSLSLSPGK
B2: PEG20-etanercept (10 eq) (Fc fusion)
chain: B1 chain
modifications: 20 KDa PEG (PEG20) conjugated via NHS-ester PEG reagent at 10 times molar excess; sites not stated

Key:
[1] = target: T1, Recombinant human TNF-alpha (human, UniProt P01375 77-233); test: ELISA of unbound rhTNF-alpha after pre-incubation; printed as 4.095e-009 g/ml
T1 sequence (P01375 77-233): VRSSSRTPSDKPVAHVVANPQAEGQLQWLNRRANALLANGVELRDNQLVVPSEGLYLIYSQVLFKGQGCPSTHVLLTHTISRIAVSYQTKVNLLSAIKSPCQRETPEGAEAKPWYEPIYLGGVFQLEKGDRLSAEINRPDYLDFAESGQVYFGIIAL

[2] = target: T1, Recombinant human TNF-alpha; test: ELISA of unbound rhTNF-alpha after pre-incubation; printed as 6.116e-009 g/ml

| IC50 [1] | IC50 [2] | Binder |
| --- | --- | --- |
| 4.09 ng/mL |  | B1 |
|  | 6.12 ng/mL | B2 |
